Positions count from the first letter of the chain named.
B1: LK-RB1-51 (antibody, human IgG4 S228P, kappa, V domains shown)
VH: QVQIQQSGAELVKPGASVKLSCKASGYTFTEFPIHWIKQRSGQGLEWIGWFYPGSDNMNYNEKFKDKATLTADKSSSTVYMELSRLTSEDSAVYFCARHENAYFYAMDYWGQGTSVTVSS
VL: ENVLTQSPAIMSASLGEKVTMSCRASSSVNYMYWYQQKSDASPKIWIYYTSNLAPGVPARFSGSGSGNSYSLTISSMEGEDAATYYCQQFTSSPFTFGTGTKLEIKR
B2: LK-RB1-8 (antibody, human IgG4 S228P, kappa, V domains shown)
VH: QVQLQQSGAELVRPGTSVKVSCKASGYAFSNYLIEWVKQRPGQGLEWIGVINPGSDGSTYNEKFKGKATLTADKSSNTAYMQLSSLTSEDSAVYFCARGDYGRSYGMDYWGQGTSVTVSS
VL: DIVMTQSQKFMSTTVGDRVSITCKASQNVGTAVVWYQQKPGQSPKLLIYSASNRYTGVPDRFTGSGSGTDFTLTISNMQSEDLADYFCQQYSSYMYTFGGGTKLEIKR
B3: LK-RB1-6 (antibody, human IgG4 S228P, kappa, V domains shown)
VH: QIQLVQSGPELKKPGETVKISCKASGYTFTTYGMSWVKQAPGKDLKWMGWINTFSGVPACADDFQGRFDFSAEPSDSTAHLQINNLKNEDTATYFCARRSYYGSRGWYFDVWGTGTTVTVSS
VL: DIVMTQSHKFMSTSVGDRVSITCTASEDVNTAVAWYQQKPGQSPKLLIYWASTRHTGVPDRFTGSGSGTDYTLTISSVQTEDLALYYCQQHYNTPYTFGGGTKLEIKR
B4: LK-RB1-7 (antibody, human IgG4 S228P, kappa, V domains shown)
VH: B3 VH
VL: DVQMIQSPSSLSASLGDIVTMTCQASQDTTINLNWFQQKPGKVPKLLIYGASNLEDGVPSRFSGSSFGTDFTLTISSLEDEDMATYFCLQHTYLPRTFGGGTKLEIRR
B5: LK-RB1-40 (antibody, human IgG4 S228P, kappa, V domains shown)
VH: DVQLQESGPGLVQPSQSLSLTCSVTGYSITSGYQWNWIRQLPGNKLEWMAYISFDGSNNYNPSLKNRISITRDTSKNQFFLKLKSVTTEDTATYYCARRDYDGVAYWGQGTLVTVSA
VL: DVLMTQTPLSLPVSLGDQASISCRSSQSIVHSNGNTYLEWYLQKPGQSPKLLIYKVSNRFSGVPDRFSGSGSGTDFTLKISRVEAEDLGVYYCFQGSHVPWTFGGGTKLEIKR
B6: LK-RB1-4 (antibody, human IgG4 S228P, kappa, V domains shown)
VH: QVQLQQPGAELVKPGASVKLPCKTSGYTFTSYWMHWVKQRPGRGLEWIGRIDPHYSGTKYNEKFKNKATMTVDTPSSTAYMQLSSLTSEDSAVYYCARFDGDPYYFDYWGPGTTLTVSS
VL: DIVMTQSQKFMSTSVGDRVSVTCKASQNVGTNVAWYKQKAGQSPKAVIYSASYRYSGVPDRFTGSGSGTDFTLSISNVQSEDLAEYFCQQYNNNPFTFGSGTKLEIKR
B7: LK-RB1-3 (antibody, human IgG4 S228P, kappa, V domains shown)
VH: QVQLQQPGAELVKPGTSVNLSCKASGYTFTSYWIHWVKQRPGRGLEWIGRINPYSSGTRYNEKFKNKATLTVDKPSSTAYMQLTSLTSEDSAVYYCARFDGAPDYFDFWGQGTTLTVSS
VL: DIVMTQSQKFMPTSVGDRVNVTCKASQNVGINVAWYQQKLGQSPKALIYSASYRYSGVPDRFTGSGSGTDFTLTINSVQSEDLADYFCQQYNNYPFTFGSGTKLEIKR
B8: LK-RB1-10 (antibody, human IgG4 S228P, kappa, V domains shown)
VH: QVTLKESGPGILKPSQTLSLTCSFSGFSLSTSGTGVGWIRQPSGKGLEWLAHIWWNDDKYYKPSLKRQLTISKDTSRNQVFLKITSVDTADTATYYCTRTELGRGDYWGQGTSVTVSS
VL: DILLTQSPAILSVSPGERVSFSCRASQSIGTNIHWYQQRMNGSPRLIIKYASELISGIPSRFSGSGSGTDFTLSINSVESEDIADYYCQQSYGWPYTFGGGTKLETKR
B9: LK-RB1-14 (antibody, human IgG4 S228P, kappa, V domains shown)
VH: B8 VH with T34M, N56D, K62N, R67S, T98A, Y107S
VL: B8 VL with N32S, M40T, I47L, L54S, G93S, T106I
B10: LK-RB1-2 (antibody, human IgG4 S228P, kappa, V domains shown)
VH: QIQLVQSGPELKKPGETVKISCKASGYTFTTYGVSWVKQAPGKGLKWMGWINTYSGVSTYSDDFKGRFAFSLETSASTAYLQIINLKNEDAATYFCSRRRRTYDGYLSFDYWGQGTTLTVSS
VL: DIQMTQSPGSLSASVGETVTITCGASENIYGALNWFQRKPGKSPQLLIYGATNLADGMSSRFSGSGSGRQYSLQISSLRPDDVATYYCQNVLTTPWTFGGGTKVEIKR
B11: LK-RB1-9 (antibody, human IgG4 S228P, kappa, V domains shown)
VH: QIQLVQSGPELKKPGETVKISCTASGYTFTTYGMSWVKQAPGKGLKWMGWINTYSGVPTYADDFKGRFAFSLETSASTAYLEINNVKNEDTATYFCARRRRTYHGYLCFDYWGQGTTLTVSS
VL: B10 VL with G9V, G24E, A25T, F36Y, P40Q, Q74E, R79H, T85S, T93N, V104L
B12: LK-RB1-5 (antibody, human IgG4 S228P, kappa, V domains shown)
VH: QVQLQQPGAELVKPGASVKLSCKASGYTFTDFWIHWVKQRPGQGLEWIGMIHPNSGSTNFNEKFRAKATLTVDKSSSTAYMRLSSLTSEDSAVYYCARSGDGYSNPMDYWGQGTSVTVSS
VL: QIVLSQSPAILSASPGEKVTLTCRASSSVSYMHWYQQKPGSSPKPWIYATSNLASGVPVRFSGSGSGTSYSLTISRMQTEDAATYYCQQWRRSPYTFGGGTKLEIKR
B13: LK-RB1-58 (antibody, human IgG4 S228P, kappa, V domains shown)
VH: QVQLKQSGPGLVQPSQSLSITCTVSGFSLTTYGVHWVRQSPGKGLEWLGVIWRGGSTDYNAAFMSRLSITKDNSKSQVFFRMNSLQADDTARYYCAKNSLYYGSSWYFDVWGTGTTVTVSS
VL: B12 VL with L21M, Y31F, V59A, M77V, Q78E, T79A, R91S, R92S, S93N, Y95P
B14: LK-RB1-1 (antibody, human IgG4 S228P, kappa, V domains shown)
VH: QIQLVQSGPELKKPGETVKISCKASGYSFTNFGMSWVKQAPGKALKWMGWINTYSGVPTYADDFKGRFAFSLETSANTAYLQINNLKNEDSATYFCARRRRTFDGYLCFDYWGQGATLTVSS
VL: QLVLTQSSSASFSLGASAKLTCTLSSQHSTYSIDWYQQQPLKPPKYVMELKTDGSHRTGDGIPDRFSGSSSGADRYLSISNIQPEDEAIYICGVGDTIKEQFVYVFGGGTKVTVLR

target: T1, human LILRB1 on CHOK1 cells (human, UniProt Q8NHL6 24-650); assay: FACS binding, CHOK1-hLILRB1 cells
T1 construct: whole, on cells; also called CHOK1-hLILRB1; CHOK1-LILRB1
T1 sequence (Q8NHL6 24-650): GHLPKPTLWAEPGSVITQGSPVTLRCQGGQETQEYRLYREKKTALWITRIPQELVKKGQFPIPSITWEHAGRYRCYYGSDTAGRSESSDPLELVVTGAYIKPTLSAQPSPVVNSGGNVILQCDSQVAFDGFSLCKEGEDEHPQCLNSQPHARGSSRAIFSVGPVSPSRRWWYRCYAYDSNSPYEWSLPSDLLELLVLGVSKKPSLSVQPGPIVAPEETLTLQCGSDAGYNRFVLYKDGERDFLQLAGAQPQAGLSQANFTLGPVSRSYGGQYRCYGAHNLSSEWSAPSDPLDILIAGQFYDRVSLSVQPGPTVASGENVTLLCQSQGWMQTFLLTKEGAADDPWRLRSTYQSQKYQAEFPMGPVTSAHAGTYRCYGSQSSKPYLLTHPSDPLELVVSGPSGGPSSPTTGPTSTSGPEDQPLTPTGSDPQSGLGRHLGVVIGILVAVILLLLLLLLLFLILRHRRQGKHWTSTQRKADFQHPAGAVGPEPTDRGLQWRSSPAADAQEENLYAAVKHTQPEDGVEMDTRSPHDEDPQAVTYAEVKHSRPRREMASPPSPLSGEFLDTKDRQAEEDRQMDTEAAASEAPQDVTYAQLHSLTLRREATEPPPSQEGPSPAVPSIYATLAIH

Binder	binding result	EC50
B1	no binding	–
B2	–	1.14 nM
B3	–	0.22 nM
B4	–	0.22 nM
B5	no binding	–
B6	–	1 nM
B7	–	1.14 nM
B8	–	0.7 nM
B9	–	0.47 nM
B10	–	0.28 nM
B11	–	0.34 nM
B12	–	1.4 nM
B13	–	5 nM
B14	–	0.17 nM

target: T2, human LILRB2 on CHOK1 cells (human, UniProt Q8N423 22-597); assay: FACS binding, CHOK1-hLILRB2 cells
T2 construct: whole, on cells; also called CHOK1-hLILRB2; CHOK1-LILRB2
T2 sequence (Q8N423 22-597): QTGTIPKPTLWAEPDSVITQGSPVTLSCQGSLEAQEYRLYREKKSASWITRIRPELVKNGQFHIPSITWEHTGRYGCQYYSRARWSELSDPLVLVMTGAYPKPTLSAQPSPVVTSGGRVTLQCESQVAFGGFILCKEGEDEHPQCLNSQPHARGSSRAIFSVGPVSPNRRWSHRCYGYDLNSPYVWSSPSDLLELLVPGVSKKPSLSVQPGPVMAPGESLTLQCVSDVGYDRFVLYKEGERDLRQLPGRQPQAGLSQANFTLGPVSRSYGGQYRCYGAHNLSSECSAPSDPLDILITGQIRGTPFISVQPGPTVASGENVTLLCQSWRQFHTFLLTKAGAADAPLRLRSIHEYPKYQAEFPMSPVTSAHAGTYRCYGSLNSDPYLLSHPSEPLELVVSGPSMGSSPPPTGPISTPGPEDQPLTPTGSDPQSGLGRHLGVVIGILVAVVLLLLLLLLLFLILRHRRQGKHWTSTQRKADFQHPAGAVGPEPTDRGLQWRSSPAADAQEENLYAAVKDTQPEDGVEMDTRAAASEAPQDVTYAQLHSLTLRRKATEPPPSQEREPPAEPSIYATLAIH

Binder	binding result
B1	no binding
B2	no binding
B3	no binding
B4	no binding
B5	no binding
B6	no binding
B7	no binding
B8	no binding
B9	no binding
B10	no binding
B11	no binding
B12	no binding
B13	no binding
B14	no binding

target: T1, human LILRB1 on CHOK1 cells; assay: cell-based RBA (FACS): blocking of HLA-G binding to CHOK1-hLILRB1 cells

Binder	EC50	Top Inhibition (%)
B2	2.56 nM	86.9%
B3	0.54 nM	69.7%
B4	0.54 nM	69.7%
B6	1.74 nM	85.9%
B7	2.08 nM	87%
B8	1.04 nM	83.1%
B9	0.65 nM	81.2%
B10	0.44 nM	81.9%
B11	0.78 nM	88.1%
B12	1.97 nM	23%
B14	0.32 nM	78%

Source: patent US20260234247A1 (published 2026)
